± gives the uncertainty stated by the source.
B1: RNA-binding E3 ubiquitin-protein ligase MEX3C, residues 325 to 391; numbered along this chain, Q5U5Q3 (parent)
chain: GQTTVQVRVPYRVVGLVVGPKGATIKRIQQQTHTYIVTPSRDKEPVFEVTGMPENVDRAREEIEMHI

Variants of: B1
Assay: abundance fitness (aPCA) (normalised: wild type 0, dead -1); higher = more abundant; growth selection in yeast, the domain comes from the species named
Settings: Homo sapiens

Variant | abundance fitness
GQTTVQVRVPYRVVGLVVGPKGATIKRIQQQTHTYIVTPSRDKEPVFEVQGMPENVDRAREEIEMHI | -0.624 ± 0.099
GQTTVQVRVPYRVVGLVVGPKGATIKRIQQQTHTYIVTPSRDKEPVFEVVGMPENVDRAREEIEMHI | -0.745 ± 0.12
GQTTVQVRVPYRVVGLVVGPKGATIKRIQQQTHTYIVTPSRDKEPVFEVPGMPENVDRAREEIEMHI | -0.916 ± 0.33
GQTTVQVRVPYRVVGLVVGPKGATIKRIQQQTHTYIVTPSRDKEPVFEVSGMPENVDRAREEIEMHI | -0.254 ± 0.063
GQTTVQVRVPYRVVGLVVGPKGATIKRIQQQTHTYIVTPSRDKEPVFEVFGMPENVDRAREEIEMHI | -0.618 ± 0.16
GQTTVQVRVPYRVVGLVVGPKGATIKRIQQQTHTYIVTPSRDKEPVFEVTRMPENVDRAREEIEMHI | -0.726 ± 0.1
GQTTVQVRVPYRVVGLVVGPKGATIKRIQQQTHTYIVTPSRDKEPVFEVTHMPENVDRAREEIEMHI | -0.789 ± 0.32
GQTTVQVRVPYRVVGLVVGPKGATIKRIQQQTHTYIVTPSRDKEPVFEVTSMPENVDRAREEIEMHI | -0.918 ± 0.23
GQTTVQVRVPYRVVGLVVGPKGATIKRIQQQTHTYIVTPSRDKEPVFEVTWMPENVDRAREEIEMHI | -0.951 ± 0.26
GQTTVQVRVPYRVVGLVVGPKGATIKRIQQQTHTYIVTPSRDKEPVFEVTYMPENVDRAREEIEMHI | -0.918 ± 0.25
GQTTVQVRVPYRVVGLVVGPKGATIKRIQQQTHTYIVTPSRDKEPVFEVTLMPENVDRAREEIEMHI | -0.794 ± 0.16
GQTTVQVRVPYRVVGLVVGPKGATIKRIQQQTHTYIVTPSRDKEPVFEVTTMPENVDRAREEIEMHI | -1.05 ± 0.26
GQTTVQVRVPYRVVGLVVGPKGATIKRIQQQTHTYIVTPSRDKEPVFEVTPMPENVDRAREEIEMHI | -0.78 ± 0.23
GQTTVQVRVPYRVVGLVVGPKGATIKRIQQQTHTYIVTPSRDKEPVFEVTFMPENVDRAREEIEMHI | -0.701 ± 0.38
GQTTVQVRVPYRVVGLVVGPKGATIKRIQQQTHTYIVTPSRDKEPVFEVTCMPENVDRAREEIEMHI | -1.05 ± 0.25
GQTTVQVRVPYRVVGLVVGPKGATIKRIQQQTHTYIVTPSRDKEPVFEVTDMPENVDRAREEIEMHI | -0.656 ± 0.11
GQTTVQVRVPYRVVGLVVGPKGATIKRIQQQTHTYIVTPSRDKEPVFEVTQMPENVDRAREEIEMHI | -0.776 ± 0.36
GQTTVQVRVPYRVVGLVVGPKGATIKRIQQQTHTYIVTPSRDKEPVFEVTKMPENVDRAREEIEMHI | -0.448 ± 0.2
GQTTVQVRVPYRVVGLVVGPKGATIKRIQQQTHTYIVTPSRDKEPVFEVTEMPENVDRAREEIEMHI | -0.599 ± 0.13
GQTTVQVRVPYRVVGLVVGPKGATIKRIQQQTHTYIVTPSRDKEPVFEVTGEPENVDRAREEIEMHI | -0.2 ± 0.095

Variant | abundance fitness
GQTTVQVRVPYRVVGLVVGPKGATIKRIQQQTHTYIVTPSRDKEPVFEVTGDPENVDRAREEIEMHI | -0.13 ± 0.12
GQTTVQVRVPYRVVGLVVGPKGATIKRIQQQTHTYIVTPSRDKEPVFEVTGGPENVDRAREEIEMHI | -0.596 ± 0.071
GQTTVQVRVPYRVVGLVVGPKGATIKRIQQQTHTYIVTPSRDKEPVFEVTGAPENVDRAREEIEMHI | -0.141 ± 0.079
GQTTVQVRVPYRVVGLVVGPKGATIKRIQQQTHTYIVTPSRDKEPVFEVTGFPENVDRAREEIEMHI | -0.206 ± 0.096
GQTTVQVRVPYRVVGLVVGPKGATIKRIQQQTHTYIVTPSRDKEPVFEVTGCPENVDRAREEIEMHI | -0.194 ± 0.1
GQTTVQVRVPYRVVGLVVGPKGATIKRIQQQTHTYIVTPSRDKEPVFFVTGMPENVDRAREEIEMHI | -0.068 ± 0.12
GQTTVQVRVPYRVVGLVVGPKGATIKRIQQQTHTYIVTPSRDKEPVFQVTGMPENVDRAREEIEMHI | -0.204 ± 0.095
GQTTVQVRVPYRVVGLVVGPKGATIKRIQQQTHTYIVTPSRDKEPVFDVTGMPENVDRAREEIEMHI | -0.534 ± 0.14
GQTTVQVRVPYRVVGLVVGPKGATIKRIQQQTHTYIVTPSRDKEPVFAVTGMPENVDRAREEIEMHI | -0.356 ± 0.064
GQTTVQVRVPYRVVGLVVGPKGATIKRIQQQTHTYIVTPSRDKEPVFLVTGMPENVDRAREEIEMHI | -0.029 ± 0.057
GQTTVQVRVPYRVVGLVVGPKGATIKRIQQQTHTYIVTPSRDKEPVFPVTGMPENVDRAREEIEMHI | -0.771 ± 0.14
GQTTVQVRVPYRVVGLVVGPKGATIKRIQQQTHTYIVTPSRDKEPVFVVTGMPENVDRAREEIEMHI | -0.292 ± 0.06
GQTTVQVRVPYRVVGLVVGPKGATIKRIQQQTHTYIVTPSRDKEPVFIVTGMPENVDRAREEIEMHI | -0.007 ± 0.16
GQTTVQVRVPYRVVGLVVGPKGATIKRIQQQTHTYIVTPSRDKEPVFCVTGMPENVDRAREEIEMHI | -0.357 ± 0.1
GQTTVQVRVPYRVVGLVVGPKGATIKRIQQQTHTYIVTPSRDKEPVFSVTGMPENVDRAREEIEMHI | -0.245 ± 0.08
GQTTVQVRVPYRVVGLVVGPKGATIKRIQQQTHTYIVTPSRDKEPVFMVTGMPENVDRAREEIEMHI | -0.04 ± 0.079
GQTTVQVRVPYRVVGLVVGPKGATIKRIQQQTHTYIVTPSRDKEPVFWVTGMPENVDRAREEIEMHI | -0.124 ± 0.067
GQTTVQVRVPYRVVGLVVGPKGATIKRIQQQTHTYIVTPSRDKEPVFHVTGMPENVDRAREEIEMHI | -0.155 ± 0.14
GQTTVQVRVPYRVVGLVVGPKGATIKRIQQQTHTYIVTPSRDKEPVFNVTGMPENVDRAREEIEMHI | -0.733 ± 0.43
GQTTVQVRVPYRVVGLVVGPKGATIKRIQQQTHTYIVTPSRDKEPVFGVTGMPENVDRAREEIEMHI | -0.748 ± 0.067
